This data set deals with the molecule itself. The data set is described as follows: negative-stain TEM of fibrils.

With Ac-LVKPSFYVYSRVKNLNSSRV-NH2 [LV20, 20-residue SARS-CoV-2 envelope protein peptide LVKPSFYVYSRVKNLNSSRV], the binding result is listed as “binds”. For the protein Ac-SFYVYSRVK-NH2 [SK9, SARS-CoV-2 envelope protein peptide SFYVYSRVK], the binding result is reported as “binds”.

These data come from article doi:10.1101/2024.04.25.591137 (bioRxiv, 2024).
